According to article PMC11897886 (Nucleic Acids Research, 2024):

T1: CBP-Upf1-CH-HD (S. cerevisiae, UniProt P30771 54-851)
T1 sequence: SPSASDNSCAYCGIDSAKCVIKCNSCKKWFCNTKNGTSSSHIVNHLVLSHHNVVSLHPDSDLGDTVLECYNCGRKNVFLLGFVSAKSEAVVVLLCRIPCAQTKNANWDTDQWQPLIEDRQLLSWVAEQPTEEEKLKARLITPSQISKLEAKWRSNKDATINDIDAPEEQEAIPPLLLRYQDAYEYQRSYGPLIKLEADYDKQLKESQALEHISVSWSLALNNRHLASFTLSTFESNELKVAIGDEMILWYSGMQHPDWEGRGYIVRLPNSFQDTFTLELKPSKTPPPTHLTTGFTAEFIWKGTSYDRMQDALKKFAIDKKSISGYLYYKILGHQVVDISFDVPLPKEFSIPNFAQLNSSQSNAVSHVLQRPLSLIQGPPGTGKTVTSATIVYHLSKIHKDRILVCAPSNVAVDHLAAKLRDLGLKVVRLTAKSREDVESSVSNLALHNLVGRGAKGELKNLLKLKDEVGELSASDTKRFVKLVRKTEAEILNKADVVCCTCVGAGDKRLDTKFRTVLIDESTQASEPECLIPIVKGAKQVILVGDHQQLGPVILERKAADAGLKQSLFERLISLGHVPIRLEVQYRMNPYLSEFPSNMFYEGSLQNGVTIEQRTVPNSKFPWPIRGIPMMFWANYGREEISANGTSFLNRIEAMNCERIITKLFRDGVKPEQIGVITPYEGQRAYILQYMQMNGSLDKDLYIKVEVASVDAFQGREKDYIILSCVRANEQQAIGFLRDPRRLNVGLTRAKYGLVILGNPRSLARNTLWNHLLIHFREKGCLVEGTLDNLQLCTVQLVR

T2: CBP-Upf1-FL (S.c. Upf1 full-length) (S. cerevisiae, UniProt P30771 1-971)
T2 sequence: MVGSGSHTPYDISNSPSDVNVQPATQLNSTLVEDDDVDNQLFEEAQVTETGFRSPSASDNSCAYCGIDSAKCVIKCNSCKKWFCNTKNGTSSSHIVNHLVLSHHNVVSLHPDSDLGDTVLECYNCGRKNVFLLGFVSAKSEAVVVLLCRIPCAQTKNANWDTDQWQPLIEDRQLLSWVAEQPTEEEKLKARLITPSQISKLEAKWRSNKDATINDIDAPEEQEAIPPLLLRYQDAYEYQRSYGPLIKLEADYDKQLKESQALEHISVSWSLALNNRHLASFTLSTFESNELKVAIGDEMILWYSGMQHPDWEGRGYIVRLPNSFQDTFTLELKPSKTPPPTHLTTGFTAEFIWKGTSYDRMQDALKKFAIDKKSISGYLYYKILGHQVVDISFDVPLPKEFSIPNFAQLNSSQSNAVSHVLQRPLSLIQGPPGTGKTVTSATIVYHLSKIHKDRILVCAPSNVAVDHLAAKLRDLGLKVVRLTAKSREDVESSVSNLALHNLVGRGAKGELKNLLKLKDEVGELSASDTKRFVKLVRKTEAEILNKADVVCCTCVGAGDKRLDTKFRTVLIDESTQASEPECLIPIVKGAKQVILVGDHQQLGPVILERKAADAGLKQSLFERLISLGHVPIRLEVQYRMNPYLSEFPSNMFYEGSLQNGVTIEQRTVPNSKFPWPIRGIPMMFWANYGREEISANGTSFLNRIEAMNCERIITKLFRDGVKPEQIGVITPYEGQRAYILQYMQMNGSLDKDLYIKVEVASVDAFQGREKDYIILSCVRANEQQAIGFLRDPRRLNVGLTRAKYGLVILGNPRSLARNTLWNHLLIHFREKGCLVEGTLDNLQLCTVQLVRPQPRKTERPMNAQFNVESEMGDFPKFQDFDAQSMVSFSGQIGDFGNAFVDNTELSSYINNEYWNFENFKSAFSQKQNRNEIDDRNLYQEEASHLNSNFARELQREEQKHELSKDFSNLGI

B1: GST-Dcp2-UBM (aa 434-720) (domain or fragment)
chain: GYSSSSPGQLLDILNSKKPDSNVQSSKKPKLKILQRGTDLNSIKQNNNDETAHSNSQALLDLLKKPTSSQKIHASKPDTSFLPNDSVSGIQDAEYEDFESSSDEEVETARDERNSLNVDIGVNVMPSEKDSRRSQKEKPRNDASKTNLNASAESNSVEWGPGKSSPSTQSKQNSSVGMQNKYRQEIHIGDSDAYEVFESSSDEEDGKKLEELEQTQDNSKLISQDILKENNFQDGEVPHRDMPTESNKSINETVGLSSTTNTVKKVPKVKILKRGETFASLANDKKA
B2: GST-Dcp2-UBM1 (aa 434-508) (domain or fragment)
chain: GYSSSSPGQLLDILNSKKPDSNVQSSKKPKLKILQRGTDLNSIKQNNNDETAHSNSQALLDLLKKPTSSQKIHAS
B3: GST-Ebs1 (aa 1-591) (domain or fragment)
chain: MEPSNTQKEDLPTAFNGIKSQLNSILKSNQLFQDYALLNGFLAFVHSKLNAAILTSIESQCGKSFAADLDSFDQSSISSILDFSWESVHYPIFKWFQMWRNYILFEKENKKQQTKFIDFRKMNSKMLKFFKTVQNFYVNVINTVYKKYDISVLLPKRIIQDLKLSDIENTTNVGDILAVKTFNSSSPLAHLIPTLFHRCLLFLGTAYRYKTLLEEISNKYSISNFKKSLDFFRLASLVLPSAGETYSQAGAIFLQTGNLGIAVFNFVKGMMTKMPSPVSIKNFGALMVDNKSSLNRSLHTTIMNTYLQESKGPRTPAKEILEFYFLGLFGSVWSPTSWRDDTKPNQLNNGIKLRHLENALYETMSARYLNNIKTIFHNLIITIGGFHLLLKRRSDVSAKTLKDLRSNELDYLNFAFKYIAHILNDIVKESWSENPEVSEILGMVRIINCWIKANPMVLQYSQSNLEFVNALAYLINDIVKKKPSPSFSITEHIPKRTYWFEEDLMVKGLSFVNFQLSDFDDYEKILEMDHSLDRLIGNPPLCDKLSASSEMLLRLQAVVNISSQLLQNNNCGVEWSDNKSRYIFNKKIGFK
B4: HisSUMO-tagged Ebs1 (aa 1-591) (domain or fragment)
chain: MEPSNTQKEDLPTAFNGIKSQLNSILKSNQLFQDYALLNGFLAFVHSKLNAAILTSIESQCGKSFAADLDSFDQSSISSILDFSWESVHYPIFKWFQMWRNYILFEKENKKQQTKFIDFRKMNSKMLKFFKTVQNFYVNVINTVYKKYDISVLLPKRIIQDLKLSDIENTTNVGDILAVKTFNSSSPLAHLIPTLFHRCLLFLGTAYRYKTLLEEISNKYSISNFKKSLDFFRLASLVLPSAGETYSQAGAIFLQTGNLGIAVFNFVKGMMTKMPSPVSIKNFGALMVDNKSSLNRSLHTTIMNTYLQESKGPRTPAKEILEFYFLGLFGSVWSPTSWRDDTKPNQLNNGIKLRHLENALYETMSARYLNNIKTIFHNLIITIGGFHLLLKRRSDVSAKTLKDLRSNELDYLNFAFKYIAHILNDIVKESWSENPEVSEILGMVRIINCWIKANPMVLQYSQSNLEFVNALAYLINDIVKKKPSPSFSITEHIPKRTYWFEEDLMVKGLSFVNFQLSDFDDYEKILEMDHSLDRLIGNPPLCDKLSASSEMLLRLQAVVNISSQLLQNNNCGVEWSDNKSRYIFNKKIGFK

What was measured:
[1] = molecular target: T1, CBP-Upf1-CH-HD; test: pull-down
[2] = molecular target: T2, CBP-Upf1-FL (S.c. Upf1 full-length); test: pull-down

Row | Binder | binding result [1] | binding result [2]
1 | B1 | binds | binds
2 | B2 | binds | binds
3 | VGLSSTTNTVKKVPKVKILKRGETFASLANDKKA (domain or fragment) [GST-Dcp2-UBM2 (aa 687-720)] | binds | binds
4 | B3 |  | binds
5 | B4 |  | binds
